Paper PMC7900552, “Iris domestica (iso)flavone 7- and 3′-O-Glycosyltransferases Can Be Induced by CuCl2” (Frontiers in Plant Science, 2021)

How the values were obtained:
[1] = substrate: COc1c(O)cc2occ(-c3ccc(O)cc3)c(=O)c2c1O; experiment: purified protein; conditions: 2 mM UDP-glucose, 1 mM DTT, 50 mM PBS, pH 8.0, 30°C, 10 min
[2] = substrate: COc1cc(-c2coc3cc(O)c(OC)c(O)c3c2=O)cc(O)c1OC; experiment: HPLC glucosylation assay; format: biochemical, Iris domestica; conditions: 2 mM UDP-glucose, 1 mM DTT, 50 mM PBS, pH 8.0, 30°C, 10 min

B1: BcUGT7 (Iris domestica) (protein)
chain: MQLKESVVLFPSVGMGHLIPMVELAKLFIGHGFSVTIVVVEPPFDASTTSGPFISRVSSEYPSISFHRLPKVVPPATSKPPMIVIYETLRLACPHLLDFLKTIRSTAKVRALVLDMFCTSALDVADELGLPSYFFFASGASALAAYLLLPTLQSKLDGNFRDLGSSPVHFPGVPPVPASDLLTHVQERGESNDGIMLHFKRFPRAKGIMINTPEWLEKRAVEALANGECLPDRTMPPVYCIGPLVANGSNGGEGGGERHECLAWLDAQPEKSVVFLCFGSLGSFSGEQLKEMAIGLERSGQLFLWVVRSPPLKDDPAARPGARPEPDLEALLPEGFLERTKGKGMVVKSWAPQAAVLAHGSVGGFVSHCGWNSTLEAVSSGVPIIAWPLYAEQRMNKVFLVEEAKVAVAMEGYDKDIVSAEEVEKKIRWLMESKDGKAMKDRAVEAKEKAVAAWKEDGSSSLAWLELERALRMGA
notes: full ORF in pCold-TF, E. coli, His-tag + trigger factor fusion (~105 kDa; UGT ~53 kDa), Ni-NTA
Km [1]: 1269 ± 9 µM
kcat [1]: 15.86 ± 7.53 s⁻¹
kcat/Km [1]: 19800 M⁻¹ s⁻¹
Km [2]: 894 ± 11 µM
kcat [2]: 17.73 ± 9.89 s⁻¹
kcat/Km [2]: 19800 M⁻¹ s⁻¹

B2: BcUGT1 (Iris domestica) (protein)
chain: MQLKESVVLFPSMGMGHIIPMVELAKLFIGHGFSVTIVDVEPPFDDSTTKGPFISRISSEYPSISFHRLPKVIPPATSRPPVFAFIETLRLACPHLLDFLKTIRSTTNVRALVLDMFCTPALDVADELGLPSYFFFSSSASILAAFLFFPILQDKLDGNFRDLGSSPIHFPGLPPVPASDLPTQMQERGEANDGIMFHFNSYPRATGIMINTLEWLEKRAIEVLANGECLPDRTMPPVYCIGPLVATGSNEGEGEGEGEKHECLAWLDAQPEKSVVFLCFGSMGSFSAEQVKEIAIGLERSGQRFLWVVRSPPLKDDPAARHGARPEPDLEALLPEGFLERTKEKGMVVKSWAPQAAVLAHGSVGGFVSHCGWNSTLEAVSSGVPIIAWPLYAEQRMNKVFLVEEAKLAVAMEGYNKDVVSAEEVEKKIRWLMESEDGKALKDRAVEAKEKAVAAWKQEGSSFLAWLELVRAVRKEA
notes: as for B1
Km [1]: 592 ± 49 µM
kcat [1]: 57.29 ± 4.94 s⁻¹
kcat/Km [1]: 96800 M⁻¹ s⁻¹
Km [2]: 210 ± 13 µM
kcat [2]: 58.88 ± 3.24 s⁻¹
kcat/Km [2]: 280000 M⁻¹ s⁻¹

B3: BcUGT2 (Iris domestica) (protein)
chain: MQLKESVVLFPSMGMGHIIPMVELAKLFIGHGFSVTIVDVEPPFDDSTTKGPFISRISSEYPSISFHRLPKVIPPATSRPPVFAFIETLRLACPHLLDFLKTIRSTTNVRALVLDMFCTPALDVADELGLPSYFFFSSSASILAAFLFFPILQDKLDGNFRDLGSSPIHFPGLPPVPASDLPTQMQERGEANDGIMFHFNSYPRATGIMINTLEWLEKRAIEVLANGECLPDRTMPPVYCIGPLVATGSNEGEGEGEGEKHECLAWLDAQPEKSVVFLCFGSMGSFSAEQVKEIAIGLERSGQRFLWVVRSPPLKDDPAARHGARPEPDLEALLPEGFLERTKGKGMVVKSWAPQAAVLAHGSVGGFVSHCGWNSTLEAVSSGVPIIAWPLYAEQRMNKVFLVEEAKLAVAMEGYDKDVVSAEEVEKKIRWLMESEDGKVMKDRAVEAKEKAVAARMQDGSSSLAWLELVRAVRKEA
Km [1]: 392 ± 7 µM
kcat [1]: 70.10 ± 9.86 s⁻¹
kcat/Km [1]: 179000 M⁻¹ s⁻¹

B4: BcUGT5 (Iris domestica) (protein)
chain: MQLKESVVLFPSVGMGHLIPMVELAKLFIGHGFSVTIVVVEPPFDVSTTNHPFISRVSSEYPSISFHRLPKVIPPATSRPPVFAFIETLRLACPHLLDFLKTIRSTSNVRALVLDMFCTSALDVADELGLPSYFFFASGASTLAAFLLLPTLQSKLDGNFRDLGSSPVHFPGLPPVPASDLLIHVQERGEANDEIMFHFKRLPRAKGIMINTMEWLEKRAVEALANGECLPDRTMPPVYCIGPLVASGSNGGGGEGERHECLAWLDAQPEKSVVFLCFGSMGSFSAEQVKEMAVGLERSGQRFLWVVRSPPLKDDPAARPGARPEPDLEALLPEGFLERTKGKGMVVKSWAPQAAVLAHGSVGGFVSHCGWNSTLEAVSSGVPIIAWPLYAEQRMNKVFLVEEAKLAVAMEGYNKDVVSAEEVEKKIRWLMESEDGKALKDRAVEAKEKAVAAWKQEGSSSLAWLELVRAVRKEA
notes: as for B1
Km [1]: 201 ± 15 µM
kcat [1]: 116.03 ± 6.98 s⁻¹
kcat/Km [1]: 577000 M⁻¹ s⁻¹
Km [2]: 121 ± 9 µM
kcat [2]: 296.52 ± 11.8 s⁻¹
kcat/Km [2]: 2.45e+06 M⁻¹ s⁻¹

B5: BcUGT8 (Iris domestica) (protein)
chain: MEFTQSVILYPSLGMGHLIPTLELAKLFIDQGFSVTIVVIDSPPSDTSSTMDSFISRASSAYPSLSFHRLPKVAPPASKLPMVFLSETVRLANASLLDFLSSKKSTSDIRAVVLDMFCSASLDIVEELHLPSYFFFSSSASALAACLFFPTLQSQLAGSFRDLGSSPVHFPGLPPIPASDLPADVQVRGESYDAALAHFVRLPRADGIMINTFESLEKRAVRALVDGVCVPGRATPPVYCIGPLIADGSDGGERHECLAWLDAQPERSVVFLCFGSMGSFSTEQLKETAGGLERSGQRFLWVVRSPPSDPAYPFGPRAETELEALLPEGFLERTRERGMVLESWAPQAAVLAHRSVGGFVSHCGWNSTLEAVCSGVPMLGWPLYAEQRMNRVSLVEEAKVAVAMEGCHNGLVSADEVETKIRRLMESRALGERMAATKERAVAARTEGGESTLALLELVRALRKATPGTGA
notes: as for B1
Km [2]: 1423 ± 21 µM
kcat [2]: 11.97 ± 1.31 s⁻¹
kcat/Km [2]: 8410 M⁻¹ s⁻¹

B6: BcUGT4 (Iris domestica) (protein)
chain: MQLKESVVLFPSVGMGHLIPMVELAKLFIGHGFSVTIVVVEPPFDVSTTNHPFISRVSSEYPSISFHRLPKVVPPATFRPPVIVLFETLRLACPQLLDFLKTIRSTSNVRALVLDMFCTSALDVADELGLPSYFFFASGASTLAAFLLFPTLQSKLDGNFRDLGSSPVHFPGLPPVPASDLPTQMQERGEANDGIMFHFKRLPRAKGIMINTPEWLEKRAVEALANGECLPDRTMPPVYCIGPLVASGSNGGGGGEGERHECLAWLDAQPKKSVVFLCFGSMGSFSAEQVKEMAVGLERSGQRFLWVVRSPPLKDDPAARPGARPEPDLEALLPEGFLERTKGKGMVVKSWAPQAAVLAHGSVGGFVSHCGWNSTLEAVSSGVPIIAWPLYAEQRMNKVFLVEEAKLAVAMEGYNKDVVSAEEVEKKIRWLMESEDGKALKDRAVEAKEKAVAAWKQEGSSFLAWLELVRAVRKEA
notes: as for B1
Km [1]: 115 ± 23 µM
kcat [1]: 155.18 ± 12.26 s⁻¹
kcat/Km [1]: 1.35e+06 M⁻¹ s⁻¹
Km [2]: 190 ± 7 µM
kcat [2]: 57.23 ± 18.21 s⁻¹
kcat/Km [2]: 301000 M⁻¹ s⁻¹
